Measurements from article PMC3744807.

Biological target: PARP-1 F1+F2 (UniProt P09874 1-214)
Experiment: pull-down

Chain of PARP-1 F1+F2 (P09874 1-214): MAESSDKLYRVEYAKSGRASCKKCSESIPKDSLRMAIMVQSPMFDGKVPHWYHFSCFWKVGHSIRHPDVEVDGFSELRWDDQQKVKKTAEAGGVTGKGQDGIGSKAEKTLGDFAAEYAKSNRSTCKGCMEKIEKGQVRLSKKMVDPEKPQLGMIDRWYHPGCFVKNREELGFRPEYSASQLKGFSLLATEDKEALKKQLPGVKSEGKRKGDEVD

B1: 15 bp duplex, biotinylated (dsDNA)
DNA 1: ACTGCGTTTATGTAT
DNA 2: ATACATAAACGCAGT
Question: Does B1 bind?
Answer: Result: binds
